# Reference: paper PMC3509132, “Global Epigenetic Changes Induced by SWI2/SNF2 Inhibitors Characterize Neomycin-Resistant Mammalian Cells” (PLoS ONE, 2012)
# Experiments:
# Assay in all cases: intrinsic tryptophan fluorescence quenching
# MAD47 = target: T1, MAD47 (UniProt Q9TTA5); conditions: Fluorescence at 25 C (Cary-Varian spectrofluorimeter); buffer, salt and pH not given (as in ref 13)
# T1 sequence (Q9TTA5 whole entry, looked up): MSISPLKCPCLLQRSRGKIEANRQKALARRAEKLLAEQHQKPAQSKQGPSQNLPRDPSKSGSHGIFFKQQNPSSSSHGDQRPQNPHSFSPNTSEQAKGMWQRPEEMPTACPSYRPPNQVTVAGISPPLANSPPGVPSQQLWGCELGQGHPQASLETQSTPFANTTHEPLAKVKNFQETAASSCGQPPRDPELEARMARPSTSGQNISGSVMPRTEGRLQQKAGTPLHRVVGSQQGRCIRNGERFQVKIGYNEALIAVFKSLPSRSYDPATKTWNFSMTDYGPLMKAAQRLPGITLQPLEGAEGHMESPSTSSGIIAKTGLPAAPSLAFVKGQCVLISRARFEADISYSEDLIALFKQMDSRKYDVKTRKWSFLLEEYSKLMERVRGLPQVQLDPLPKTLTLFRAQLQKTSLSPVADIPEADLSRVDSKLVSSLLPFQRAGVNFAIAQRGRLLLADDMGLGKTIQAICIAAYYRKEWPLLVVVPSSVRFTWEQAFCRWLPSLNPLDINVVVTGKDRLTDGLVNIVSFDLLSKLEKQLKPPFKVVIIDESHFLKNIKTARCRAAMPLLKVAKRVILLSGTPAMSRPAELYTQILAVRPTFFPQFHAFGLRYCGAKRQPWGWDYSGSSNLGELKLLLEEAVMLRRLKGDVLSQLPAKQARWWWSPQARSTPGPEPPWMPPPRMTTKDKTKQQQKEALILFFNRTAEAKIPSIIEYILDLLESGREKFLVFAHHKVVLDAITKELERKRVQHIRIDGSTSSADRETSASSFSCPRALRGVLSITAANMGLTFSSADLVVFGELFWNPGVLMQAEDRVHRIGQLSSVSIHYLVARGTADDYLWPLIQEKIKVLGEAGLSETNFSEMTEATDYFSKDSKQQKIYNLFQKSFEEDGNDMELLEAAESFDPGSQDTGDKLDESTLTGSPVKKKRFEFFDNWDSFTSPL
# [1] = target: T2, His-ADAAD (Active DNA-dependent ATPase A Domain) (UniProt Q9TTA5); conditions: Fluorescence at 25 C (Cary-Varian spectrofluorimeter), buffer, salt and pH not given (as in ref 13)
# T2 sequence (Q9TTA5 whole entry, looked up): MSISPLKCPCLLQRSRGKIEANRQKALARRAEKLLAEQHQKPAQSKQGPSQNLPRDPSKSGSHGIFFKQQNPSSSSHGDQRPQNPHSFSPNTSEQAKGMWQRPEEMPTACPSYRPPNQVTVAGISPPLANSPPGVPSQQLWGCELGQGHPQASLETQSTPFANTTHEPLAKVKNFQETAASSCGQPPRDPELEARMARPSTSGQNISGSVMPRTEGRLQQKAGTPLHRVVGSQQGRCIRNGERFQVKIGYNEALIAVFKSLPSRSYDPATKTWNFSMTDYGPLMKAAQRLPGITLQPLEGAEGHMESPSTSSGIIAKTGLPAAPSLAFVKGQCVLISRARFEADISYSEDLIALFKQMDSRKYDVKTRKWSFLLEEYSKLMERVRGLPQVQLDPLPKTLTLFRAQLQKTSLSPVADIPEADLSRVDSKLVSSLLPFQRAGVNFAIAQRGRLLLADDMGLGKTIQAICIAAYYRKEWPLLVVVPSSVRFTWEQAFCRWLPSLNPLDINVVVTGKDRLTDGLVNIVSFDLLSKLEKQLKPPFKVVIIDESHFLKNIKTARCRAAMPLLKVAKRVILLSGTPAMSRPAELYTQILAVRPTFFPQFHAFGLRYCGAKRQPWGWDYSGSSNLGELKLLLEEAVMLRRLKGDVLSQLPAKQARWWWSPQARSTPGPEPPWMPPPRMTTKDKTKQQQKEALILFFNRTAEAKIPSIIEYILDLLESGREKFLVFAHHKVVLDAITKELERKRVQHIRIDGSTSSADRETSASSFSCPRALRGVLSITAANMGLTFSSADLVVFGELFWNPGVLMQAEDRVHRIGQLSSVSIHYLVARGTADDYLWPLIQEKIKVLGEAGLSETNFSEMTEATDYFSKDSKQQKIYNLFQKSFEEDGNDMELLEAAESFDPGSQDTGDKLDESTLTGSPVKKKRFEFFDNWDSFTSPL
# MAD28 = target: T3, MAD28 (UniProt Q9TTA5); conditions: Fluorescence at 25 C (Cary-Varian spectrofluorimeter); buffer, salt and pH not given (as in ref 13)
# T3 sequence (Q9TTA5 whole entry, looked up): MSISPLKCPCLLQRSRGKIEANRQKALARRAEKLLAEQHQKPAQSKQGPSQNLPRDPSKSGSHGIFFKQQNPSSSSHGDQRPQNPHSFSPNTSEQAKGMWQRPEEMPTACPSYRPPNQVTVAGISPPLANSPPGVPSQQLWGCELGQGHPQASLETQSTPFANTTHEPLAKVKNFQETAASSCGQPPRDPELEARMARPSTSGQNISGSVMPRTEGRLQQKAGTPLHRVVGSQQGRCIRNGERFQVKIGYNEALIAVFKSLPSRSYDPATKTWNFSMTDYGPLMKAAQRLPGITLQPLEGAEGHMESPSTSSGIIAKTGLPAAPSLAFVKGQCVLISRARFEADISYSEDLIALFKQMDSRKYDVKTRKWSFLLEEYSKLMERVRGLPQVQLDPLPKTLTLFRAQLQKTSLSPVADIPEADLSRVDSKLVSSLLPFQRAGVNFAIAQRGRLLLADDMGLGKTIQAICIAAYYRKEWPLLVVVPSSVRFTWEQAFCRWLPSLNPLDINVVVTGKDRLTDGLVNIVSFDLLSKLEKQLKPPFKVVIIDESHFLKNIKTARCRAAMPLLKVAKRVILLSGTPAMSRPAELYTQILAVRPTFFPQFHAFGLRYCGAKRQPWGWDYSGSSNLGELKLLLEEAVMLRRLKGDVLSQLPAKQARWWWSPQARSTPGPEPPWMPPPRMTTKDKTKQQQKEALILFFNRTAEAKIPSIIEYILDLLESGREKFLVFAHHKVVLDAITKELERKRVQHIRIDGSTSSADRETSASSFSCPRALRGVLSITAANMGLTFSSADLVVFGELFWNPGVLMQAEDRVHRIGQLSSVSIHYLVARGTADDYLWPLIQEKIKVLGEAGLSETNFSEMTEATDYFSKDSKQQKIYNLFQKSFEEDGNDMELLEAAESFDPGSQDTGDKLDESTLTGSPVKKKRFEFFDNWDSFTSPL
# MAD33 = target: T4, MAD33 (UniProt Q9TTA5); conditions: Fluorescence at 25 C (Cary-Varian spectrofluorimeter); buffer, salt and pH not given (as in ref 13)
# T4 sequence (Q9TTA5 whole entry, looked up): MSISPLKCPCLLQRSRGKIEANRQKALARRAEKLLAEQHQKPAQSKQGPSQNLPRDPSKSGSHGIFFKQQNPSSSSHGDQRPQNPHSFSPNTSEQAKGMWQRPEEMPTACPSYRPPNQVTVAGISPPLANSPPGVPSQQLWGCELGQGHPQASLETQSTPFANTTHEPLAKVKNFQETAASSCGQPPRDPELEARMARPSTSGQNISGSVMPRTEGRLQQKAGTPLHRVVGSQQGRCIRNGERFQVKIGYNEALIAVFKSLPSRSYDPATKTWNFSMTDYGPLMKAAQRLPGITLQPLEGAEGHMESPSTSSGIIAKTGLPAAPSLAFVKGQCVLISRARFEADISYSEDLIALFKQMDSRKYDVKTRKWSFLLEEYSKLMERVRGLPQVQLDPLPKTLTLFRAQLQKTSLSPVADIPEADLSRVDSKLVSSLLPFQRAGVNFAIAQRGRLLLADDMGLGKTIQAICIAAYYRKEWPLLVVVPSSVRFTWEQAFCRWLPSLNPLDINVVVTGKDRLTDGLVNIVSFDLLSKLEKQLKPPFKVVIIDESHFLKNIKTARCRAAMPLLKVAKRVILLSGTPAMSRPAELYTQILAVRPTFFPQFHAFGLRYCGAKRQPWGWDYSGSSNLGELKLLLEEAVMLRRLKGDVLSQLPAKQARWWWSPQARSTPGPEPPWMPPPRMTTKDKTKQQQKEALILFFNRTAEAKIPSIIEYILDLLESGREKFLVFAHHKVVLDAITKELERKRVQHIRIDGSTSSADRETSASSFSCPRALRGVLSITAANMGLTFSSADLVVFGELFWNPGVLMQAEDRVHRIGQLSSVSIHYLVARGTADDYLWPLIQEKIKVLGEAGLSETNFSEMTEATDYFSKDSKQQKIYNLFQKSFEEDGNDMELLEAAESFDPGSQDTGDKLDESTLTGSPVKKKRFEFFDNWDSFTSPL
# MAD8 = target: T5, MAD8 (UniProt Q9TTA5); conditions: Fluorescence at 25 C (Cary-Varian spectrofluorimeter); buffer, salt and pH not given (as in ref 13)
# T5 sequence (Q9TTA5 whole entry, looked up): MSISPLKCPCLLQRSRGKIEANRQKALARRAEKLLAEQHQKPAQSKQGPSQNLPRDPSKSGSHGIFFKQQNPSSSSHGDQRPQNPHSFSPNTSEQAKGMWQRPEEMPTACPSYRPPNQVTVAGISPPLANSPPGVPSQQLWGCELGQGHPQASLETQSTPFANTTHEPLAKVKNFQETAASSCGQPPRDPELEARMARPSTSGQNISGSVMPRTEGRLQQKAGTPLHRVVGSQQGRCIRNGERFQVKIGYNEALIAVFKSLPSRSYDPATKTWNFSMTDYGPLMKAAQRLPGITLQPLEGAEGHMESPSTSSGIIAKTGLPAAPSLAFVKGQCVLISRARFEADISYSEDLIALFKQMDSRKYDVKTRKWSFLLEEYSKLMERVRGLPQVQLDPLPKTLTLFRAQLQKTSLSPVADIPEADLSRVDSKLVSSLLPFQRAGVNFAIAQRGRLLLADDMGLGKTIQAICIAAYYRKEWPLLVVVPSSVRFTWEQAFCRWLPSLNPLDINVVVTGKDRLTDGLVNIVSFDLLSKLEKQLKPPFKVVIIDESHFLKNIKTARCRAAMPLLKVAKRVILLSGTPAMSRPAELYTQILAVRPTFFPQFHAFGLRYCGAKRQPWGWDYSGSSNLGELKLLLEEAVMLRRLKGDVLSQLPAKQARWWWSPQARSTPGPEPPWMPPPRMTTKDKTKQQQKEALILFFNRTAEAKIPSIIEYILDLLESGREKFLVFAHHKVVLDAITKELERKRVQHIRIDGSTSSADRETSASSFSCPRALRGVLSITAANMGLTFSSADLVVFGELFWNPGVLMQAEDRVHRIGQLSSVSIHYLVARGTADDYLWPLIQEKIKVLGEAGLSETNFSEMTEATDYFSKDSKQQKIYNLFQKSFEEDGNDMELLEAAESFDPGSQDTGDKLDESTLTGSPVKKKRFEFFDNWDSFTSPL
# MAD53 = target: T6, MAD53 (UniProt Q9TTA5); conditions: Fluorescence at 25 C (Cary-Varian spectrofluorimeter); buffer, salt and pH not given (as in ref 13)
# T6 sequence (Q9TTA5 whole entry, looked up): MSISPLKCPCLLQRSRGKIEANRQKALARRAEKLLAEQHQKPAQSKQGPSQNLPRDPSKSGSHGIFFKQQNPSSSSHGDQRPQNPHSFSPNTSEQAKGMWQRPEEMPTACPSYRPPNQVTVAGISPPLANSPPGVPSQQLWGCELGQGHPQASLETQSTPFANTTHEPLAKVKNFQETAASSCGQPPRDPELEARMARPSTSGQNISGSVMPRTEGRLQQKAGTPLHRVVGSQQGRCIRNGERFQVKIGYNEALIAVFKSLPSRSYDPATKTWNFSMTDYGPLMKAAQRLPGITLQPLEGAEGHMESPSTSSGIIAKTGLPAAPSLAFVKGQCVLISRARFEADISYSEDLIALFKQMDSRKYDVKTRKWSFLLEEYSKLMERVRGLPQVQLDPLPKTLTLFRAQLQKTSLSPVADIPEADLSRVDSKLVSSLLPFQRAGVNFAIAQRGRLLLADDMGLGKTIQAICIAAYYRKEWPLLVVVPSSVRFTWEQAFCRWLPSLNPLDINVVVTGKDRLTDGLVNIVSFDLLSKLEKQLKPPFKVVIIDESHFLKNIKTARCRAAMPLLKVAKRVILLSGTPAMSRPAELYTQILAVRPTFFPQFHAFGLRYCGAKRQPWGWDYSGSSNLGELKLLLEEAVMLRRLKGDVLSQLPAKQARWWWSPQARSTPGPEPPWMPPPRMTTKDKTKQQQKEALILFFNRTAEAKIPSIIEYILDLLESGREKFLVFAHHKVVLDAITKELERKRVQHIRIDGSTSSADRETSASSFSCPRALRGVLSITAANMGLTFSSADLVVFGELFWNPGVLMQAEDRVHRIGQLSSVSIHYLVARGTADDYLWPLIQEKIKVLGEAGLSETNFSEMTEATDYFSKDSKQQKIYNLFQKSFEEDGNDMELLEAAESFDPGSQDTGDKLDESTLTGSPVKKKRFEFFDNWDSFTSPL
sequence,measurement,setting,value
GCGCAATTGCGCTCGACGATTTTTTAGCGCAATTGCGC [slDNA (stem-loop DNA)],Kd,MAD47,6.5 nM
same,Kd,[1]; 2 uM ADAADiK,0.46 nM
same,Kd,[1]; 2 uM ADAADiN (saturating inhibitor),0.63 nM
same,Kd,MAD28,22.1 nM
same,Kd,MAD33,41.5 nM
same,Kd,MAD8,8.7 nM
same,Kd,MAD53,8.2 nM
